The text below walks through data of patent US20020019349A1.

This test has as its target relaxin binding sites on primary human fetal cardiac cells (receptor not named) (human). As to the kind of experiment: competitive binding on cultured cells: 100 µM 32P-relaxin, 2 hr at room temperature, with or without 1000-fold excess of unlabeled relaxin; (total - nonspecific)/total x 100.

“32P-labeled relaxin (from UniProt P04090 162-185; P04090 25-53) (ligand)” displayed a percent specific binding of 40 to 55%.
